The RNAGym collection of RNA variant scans (doi:10.1093/molbev/msab373)

B1: Azoarcus group I ribozyme (parent)
chain: GUGCCUUGCGCCGGGAAACCACGCAAGGGAUGGUGUCAAAUUCGGCGAAACCUAAGCGCCCGCCCGGGCGUAUGGCAACGCCGAGCCAAGCUUCGGCGCCUGCGCCGAUGAAGGUGUAGAGACUAGACGGCACCCACCUAAGGCAAACGCUAUGGUGAAGGCAUAGUCCAGGGAGUGGCGAAAGUCACACAAACCGG

Variants of: B1
Test: reverse-splicing fitness (ratio to wild type); higher = more active; in vitro selection; Mg2+ level not given
Method in brief: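 An in vitro group I ribozyme library with randomized positions was T7-transcribed and gel-purified. In triplicate, 10 pmol RNA in EPPS pH 7.5 was reacted with 50 pmoles of a 30-nt RNA substrate for 1 h at 37 °C across several added MgCl2 levels (1–48 mM), then stopped with EDTA. Products were reverse transcribed from a substrate-complementary primer, PCR-amplified and sequenced (HiSeq 4000). Fitness is a variant's read proportion after selection over that before, normalised to wild type.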

Question: Which reverse-splicing fitness does the source give for A111U A120C C150G C169G U176C here?
Answer: Its reverse-splicing fitness is 0.00491.

Question: With A111U A120C C150G C169G U176G as the variant, how does the reverse-splicing fitness read?
Answer: Its reverse-splicing fitness is 0.00508.

Question: Which reverse-splicing fitness does the source give for A111U A120C C150G C169G U176A here?
Answer: Its reverse-splicing fitness is 0.00683.

Question: For A111U A120G A145C C169A U176C, which reverse-splicing fitness is on record?
Answer: Its reverse-splicing fitness is 0.0194.

Question: For A111U A120G A145C C169A U176A, which reverse-splicing fitness is on record?
Answer: The reverse-splicing fitness was 0.0217.

Question: Which reverse-splicing fitness does the source give for A111U A120G A145C C169A U176G here?
Answer: Its reverse-splicing fitness is 0.00414.

Question: With A111U A120C A145G C150U C169A U176C as the variant, how does the reverse-splicing fitness read?
Answer: The reverse-splicing fitness was 0.0138.

Question: Which reverse-splicing fitness does the source give for A111U A120C A145G C150U C169A U176G here?
Answer: The reverse-splicing fitness was 0.00555.

Question: With A111U A120G A145U C150G C169U U176C as the variant, how does the reverse-splicing fitness read?
Answer: Its reverse-splicing fitness is 0.0151.

Question: With A111U A120G A145U C150G C169U U176A as the variant, how does the reverse-splicing fitness read?
Answer: Its reverse-splicing fitness is 0.0147.

Question: With A111U A120G A145U C150G C169U U176G as the variant, how does the reverse-splicing fitness read?
Answer: The reverse-splicing fitness was 0.00433.

Question: For A111U A120G A145U C150A U176C, which reverse-splicing fitness is on record?
Answer: Its reverse-splicing fitness is 0.018.

Question: For A111U A120G A145U C150A U176A, which reverse-splicing fitness is on record?
Answer: The reverse-splicing fitness was 0.0129.

Question: With A111U A120G A145U C150A U176G as the variant, how does the reverse-splicing fitness read?
Answer: The reverse-splicing fitness was 0.00474.

Question: For A111U A120G A145G C169A U176G, which reverse-splicing fitness is on record?
Answer: Its reverse-splicing fitness is 0.00472.

Question: With A111U A120G A145G C169A U176A as the variant, how does the reverse-splicing fitness read?
Answer: The reverse-splicing fitness was 0.0312.

Question: With A111U A120G A145G C169A U176C as the variant, how does the reverse-splicing fitness read?
Answer: The reverse-splicing fitness was 0.0453.

Question: Which reverse-splicing fitness does the source give for A111U A120G A145G C150G C169A U176G here?
Answer: The reverse-splicing fitness was 0.00787.

Question: Which reverse-splicing fitness does the source give for A111U A120G A145G C150G C169A U176A here?
Answer: The reverse-splicing fitness was 0.0126.

Question: With A111U A120G A145G C150G C169A U176C as the variant, how does the reverse-splicing fitness read?
Answer: The reverse-splicing fitness was 0.0131.

Question: With A111U A120G A145C C169U U176C as the variant, how does the reverse-splicing fitness read?
Answer: Its reverse-splicing fitness is 0.0453.

Question: For A111U A120G A145C C169U U176A, which reverse-splicing fitness is on record?
Answer: The reverse-splicing fitness was 0.0455.

Question: With A111U A120G A145C C169U U176G as the variant, how does the reverse-splicing fitness read?
Answer: The reverse-splicing fitness was 0.00629.

Question: Which reverse-splicing fitness does the source give for A111U A120C A145U C150G C169A U176C here?
Answer: The reverse-splicing fitness was 0.00757.

Question: With A111U A120C A145U C150G C169A U176G as the variant, how does the reverse-splicing fitness read?
Answer: The reverse-splicing fitness was 0.00497.

Question: For A111U A120C A145U C150G C169A U176A, which reverse-splicing fitness is on record?
Answer: The reverse-splicing fitness was 0.00913.

Question: Which reverse-splicing fitness does the source give for A111U A120G A145U C150A C169U U176G here?
Answer: Its reverse-splicing fitness is 0.0052.

Question: Which reverse-splicing fitness does the source give for A111U A120G A145U C150A C169U U176C here?
Answer: The reverse-splicing fitness was 0.0173.

Question: Which reverse-splicing fitness does the source give for A111U A120G A145U C150A C169U U176A here?
Answer: The reverse-splicing fitness was 0.0271.

Question: With A111U A120C A145U C150G C169U U176C as the variant, how does the reverse-splicing fitness read?
Answer: Its reverse-splicing fitness is 0.0166.

Question: Which reverse-splicing fitness does the source give for A111U A120C A145U C150G C169U U176G here?
Answer: Its reverse-splicing fitness is 0.00475.

Question: With A111U A120C A145U C150G C169U U176A as the variant, how does the reverse-splicing fitness read?
Answer: The reverse-splicing fitness was 0.0117.

Question: Which reverse-splicing fitness does the source give for A111U A120G A145C C150U U176G here?
Answer: Its reverse-splicing fitness is 0.00458.

Question: For A111U A120G A145C C150U U176A, which reverse-splicing fitness is on record?
Answer: Its reverse-splicing fitness is 0.0191.

Question: For A111U A120G A145C C150U U176C, which reverse-splicing fitness is on record?
Answer: The reverse-splicing fitness was 0.0201.

Question: Which reverse-splicing fitness does the source give for A111U A120G A145U C150U C169G here?
Answer: Its reverse-splicing fitness is 0.129.

Question: Which reverse-splicing fitness does the source give for A111U A120G A145U C150U C169U here?
Answer: Its reverse-splicing fitness is 0.105.

Question: With A111U A120G A145U C150U C169A as the variant, how does the reverse-splicing fitness read?
Answer: The reverse-splicing fitness was 0.0657.

Question: With A111U A120C C150G C169A as the variant, how does the reverse-splicing fitness read?
Answer: Its reverse-splicing fitness is 0.00861.

Question: For A111U A120C C150G C169G, which reverse-splicing fitness is on record?
Answer: The reverse-splicing fitness was 0.0073.

Question: Which reverse-splicing fitness does the source give for A111U A120C C150G C169U here?
Answer: The reverse-splicing fitness was 0.02.

Question: With A111U A120C A145G C169G as the variant, how does the reverse-splicing fitness read?
Answer: Its reverse-splicing fitness is 0.0095.

Question: Which reverse-splicing fitness does the source give for A111U A120C A145G C169A here?
Answer: Its reverse-splicing fitness is 0.0121.

Question: For A111U A120C A145G C169U, which reverse-splicing fitness is on record?
Answer: The reverse-splicing fitness was 0.172.

Question: For A111U A120G A145C C150G C169A U176G, which reverse-splicing fitness is on record?
Answer: Its reverse-splicing fitness is 0.00416.

Question: Which reverse-splicing fitness does the source give for A111U A120G A145C C150G C169A U176A here?
Answer: The reverse-splicing fitness was 0.00822.

Question: For A111U A120G A145C C150G C169A U176C, which reverse-splicing fitness is on record?
Answer: The reverse-splicing fitness was 0.00757.

Question: Which reverse-splicing fitness does the source give for A111U A120C C150A U176A here?
Answer: The reverse-splicing fitness was 0.0374.

Question: With A111U A120C C150A U176G as the variant, how does the reverse-splicing fitness read?
Answer: Its reverse-splicing fitness is 0.0118.

Question: Which reverse-splicing fitness does the source give for A111U A120C C150A U176C here?
Answer: The reverse-splicing fitness was 0.0574.

Question: For A111U A120G A145U C150U C169U U176G, which reverse-splicing fitness is on record?
Answer: The reverse-splicing fitness was 0.0055.

Question: Which reverse-splicing fitness does the source give for A111U A120G A145U C150U C169U U176A here?
Answer: Its reverse-splicing fitness is 0.0396.

Question: For A111U A120G A145U C150U C169U U176C, which reverse-splicing fitness is on record?
Answer: The reverse-splicing fitness was 0.0395.

Question: Which reverse-splicing fitness does the source give for A111U A120C C150A C169U U176G here?
Answer: Its reverse-splicing fitness is 0.00713.

Question: For A111U A120C C150A C169U U176A, which reverse-splicing fitness is on record?
Answer: Its reverse-splicing fitness is 0.0243.

Question: With A111U A120C C150A C169U U176C as the variant, how does the reverse-splicing fitness read?
Answer: The reverse-splicing fitness was 0.0196.

Question: Which reverse-splicing fitness does the source give for A111U A120C C150G here?
Answer: The reverse-splicing fitness was 0.0482.

Question: With A111U A120C C150U as the variant, how does the reverse-splicing fitness read?
Answer: Its reverse-splicing fitness is 0.348.

Question: Which reverse-splicing fitness does the source give for A111U A120C C150A here?
Answer: The reverse-splicing fitness was 0.0636.

Question: Which reverse-splicing fitness does the source give for A111U A120G A145G C150U C169U U176C here?
Answer: The reverse-splicing fitness was 0.0447.

Question: For A111U A120G A145G C150U C169U U176A, which reverse-splicing fitness is on record?
Answer: The reverse-splicing fitness was 0.0386.

Question: For A111U A120G A145G C150U C169U U176G, which reverse-splicing fitness is on record?
Answer: Its reverse-splicing fitness is 0.00563.

Question: Which reverse-splicing fitness does the source give for A111U A120C A145U here?
Answer: Its reverse-splicing fitness is 0.596.

Question: For A111U A120C C150A C169A U176G, which reverse-splicing fitness is on record?
Answer: The reverse-splicing fitness was 0.00474.

Question: With A111U A120C C150A C169A U176C as the variant, how does the reverse-splicing fitness read?
Answer: The reverse-splicing fitness was 0.0133.

Question: Which reverse-splicing fitness does the source give for A111U A120C C150A C169A U176A here?
Answer: The reverse-splicing fitness was 0.0178.

Question: With A111U A120C A145U C150A U176G as the variant, how does the reverse-splicing fitness read?
Answer: The reverse-splicing fitness was 0.0114.

Question: Which reverse-splicing fitness does the source give for A111U A120C A145U C150A U176C here?
Answer: Its reverse-splicing fitness is 0.0509.

Question: For A111U A120C A145U C150A U176A, which reverse-splicing fitness is on record?
Answer: The reverse-splicing fitness was 0.034.

Question: Which reverse-splicing fitness does the source give for A111U A120G A145G C150G U176C here?
Answer: Its reverse-splicing fitness is 0.0156.

Question: For A111U A120G A145G C150G U176G, which reverse-splicing fitness is on record?
Answer: The reverse-splicing fitness was 0.00598.

Question: Which reverse-splicing fitness does the source give for A111U A120G A145G C150G U176A here?
Answer: Its reverse-splicing fitness is 0.0103.

Question: For A111U A120G A145U C150G C169G U176A, which reverse-splicing fitness is on record?
Answer: Its reverse-splicing fitness is 0.00701.

Question: For A111U A120G A145U C150G C169G U176C, which reverse-splicing fitness is on record?
Answer: Its reverse-splicing fitness is 0.0049.

Question: Which reverse-splicing fitness does the source give for A111U A120G A145U C150G C169G U176G here?
Answer: The reverse-splicing fitness was 0.00439.

Question: Which reverse-splicing fitness does the source give for A111U A120G A145C C150A C169U U176G here?
Answer: The reverse-splicing fitness was 0.00521.

Question: With A111U A120G A145C C150A C169U U176A as the variant, how does the reverse-splicing fitness read?
Answer: The reverse-splicing fitness was 0.0208.

Question: With A111U A120G A145C C150A C169U U176C as the variant, how does the reverse-splicing fitness read?
Answer: Its reverse-splicing fitness is 0.0114.

Question: With A111U A120G A145C C150G C169G U176G as the variant, how does the reverse-splicing fitness read?
Answer: Its reverse-splicing fitness is 0.00359.

Question: Which reverse-splicing fitness does the source give for A111U A120G A145C C150G C169G U176C here?
Answer: The reverse-splicing fitness was 0.00636.

Question: With A111U A120G A145C C150G C169G U176A as the variant, how does the reverse-splicing fitness read?
Answer: Its reverse-splicing fitness is 0.00926.

Question: With A111U A120G A145C U176C as the variant, how does the reverse-splicing fitness read?
Answer: Its reverse-splicing fitness is 0.0455.

Question: For A111U A120G A145C U176G, which reverse-splicing fitness is on record?
Answer: The reverse-splicing fitness was 0.00566.

Question: Which reverse-splicing fitness does the source give for A111U A120G A145C U176A here?
Answer: The reverse-splicing fitness was 0.038.
